Experimental data: patent US20110306044A1
“And” between values parts separate entries of the source, which are not always exact repeats. Equal entries are not always repeated.

How the values were obtained:
[1] = target: RDC-1 (NEOKINE receptor), transiently expressed in 293 cells; experiment: competition: bound 125I-T112 on RDC-1-transfected 293 cells with unlabelled T112 at 3.0 nm
[2] = target: RDC-1 (NEOKINE receptor), transiently expressed in 293 cells; experiment: 125I-T112 at 0.1 nm on 293 cells transiently transfected with RDC-1, no competitor

cpm bound in cell pellets [1]	cpm bound in cell pellets [2]	Substance
8340 cpm and 9230 cpm	–	T112 (NEOKINE), unlabelled (ligand)
–	37600 cpm and 27000 cpm	125I-T112 (radioiodinated NEOKINE) (ligand)
